Laboratory results as given in patent US20140093973A1 (BOARD OF REGENTS OF THE UNIVERSITY OF OKLAHOMA, published 2014).
Where two headings read alike, the source gives them in different places. Ends that are not written are not given here.

What was measured:
[1] = biological target: B*0702T (human, UniProt P61769); test: FP competition against 1.9 nM FITC-labeled P1(B*0702), 40 µg/ml sHLA B*0702T (955)
[2] = biological target: T1, soluble HLA-A*3601 (human); test: FP screen of 53 sHLA with FITC-peptide
T1 construct: Member of the panel of 53 single-specificity sHLA

[3] = biological target: T2, soluble HLA-B*1501 (human); test: FP screen of 53 sHLA with FITC-peptide
T2 construct: Member of the panel of 53 single-specificity sHLA

[4] = biological target: T3, soluble HLA-A*2902 (human); test: FP screen of 53 sHLA with FITC-peptide
T3 construct: Member of the panel of 53 single-specificity sHLA

[5] = biological target: T4, soluble HLA-A*0101 (human); test: FP screen of 53 sHLA with FITC-peptide
T4 construct: Member of the panel of 53 single-specificity sHLA

[6] = biological target: T5, soluble HLA-A*2601 (human); test: FP screen of 53 sHLA with FITC-peptide
T5 construct: Member of the panel of 53 single-specificity sHLA

[7] = biological target: T6, soluble HLA-A*3402 (human); test: FP screen of 53 sHLA with FITC-peptide
T6 construct: Member of the panel of 53 single-specificity sHLA

[8] = biological target: soluble HLA-A*0201 (sHLA-A*0201) (human); test: FP screen
[9] = biological target: T7, soluble HLA-A*3002 (human); test: FP screen
T7 construct: Member of the panel of 53 single-specificity sHLA

[10] = biological target: T8, soluble HLA-A*6801 (sHLA-A*6801) (human); test: FP screen
T8 construct: Recombinant soluble class I with endogenous peptides, made as m1

[11] = biological target: T9, soluble HLA-B*4501 (human); test: FP screen
T9 construct: Member of the panel of 53 single-specificity sHLA

[12] = biological target: T10, soluble HLA-B*1801 (human); test: FP screen
T10 construct: Member of the panel of 53 single-specificity sHLA

[13] = biological target: T11, soluble HLA-A*6901 (sHLA-A*6901) (human); test: FP screen
T11 construct: Recombinant soluble class I with endogenous peptides, made as m1

[14] = biological target: T12, soluble HLA-B*1302 (human); test: FP screen
T12 construct: Member of the panel of 53 single-specificity sHLA

[15] = biological target: T13, soluble HLA-B*4402 (human); test: FP screen
T13 construct: Member of the panel of 53 single-specificity sHLA

[16] = biological target: T14, soluble HLA-B*1512 (human); test: FP screen
T14 construct: Member of the panel of 53 single-specificity sHLA

[17] = biological target: T15, soluble HLA-B*4002 (human); test: FP screen
T15 construct: Member of the panel of 53 single-specificity sHLA

[18] = biological target: T16, soluble HLA-A*6601 (human); test: FP screen
T16 construct: Member of the panel of 53 single-specificity sHLA

[19] = biological target: T17, soluble HLA-A*2301 (human); test: FP screen
T17 construct: Member of the panel of 53 single-specificity sHLA

[20] = biological target: T18, soluble HLA-B*4001 (human); test: FP screen
T18 construct: Member of the panel of 53 single-specificity sHLA

[21] = biological target: T19, soluble HLA-A*0301 (human); test: FP screen
T19 construct: Member of the panel of 53 single-specificity sHLA

[22] = biological target: T20, soluble HLA-A*2402 (human); test: FP screen
T20 construct: Member of the panel of 53 single-specificity sHLA

[23] = biological target: T21, soluble HLA-B*2705 (sHLA-B*2705) (human); test: FP screen
T21 construct: Recombinant soluble class I with endogenous peptides, made as m1; negative control

[24] = biological target: T3, soluble HLA-A*2902; test: FP competition against 1.5 nM FITC-labeled P2(A*0101), 49.9 µg/ml sHLA A*2902T (1224)
[25] = biological target: T4, soluble HLA-A*0101; test: FP competition against 1.6 nM FITC-labeled P2(A*0101), 41.0 µg/ml sHLA A*0101T (C22)
[26] = biological target: T20, soluble HLA-A*2402; test: FP screen of 53 sHLA with FITC-peptide
[27] = biological target: soluble HLA-A*0201 (sHLA-A*0201) (human); test: FP screen; remark: listed apart in the source
[28] = biological target: T7, soluble HLA-A*3002; test: FP screen; remark: listed apart in the source
[29] = biological target: T22, soluble HLA-A*4301 (sHLA-A*4301) (human); test: FP screen
T22 construct: Recombinant soluble class I with endogenous peptides, made as m1

[30] = biological target: T8, soluble HLA-A*6801 (sHLA-A*6801); test: FP screen; remark: listed apart in the source
[31] = biological target: T23, soluble HLA-A*1102 (sHLA-A*1102) (human, UniProt P04439 25-308; P61769 21-119); test: FP screen
T23 construct: Recombinant soluble class I with endogenous peptides, made as m1

[32] = biological target: T1, soluble HLA-A*3601; test: FP screen
[33] = biological target: T10, soluble HLA-B*1801; test: FP screen; remark: listed apart in the source
[34] = biological target: T12, soluble HLA-B*1302; test: FP screen; remark: listed apart in the source
[35] = biological target: T4, soluble HLA-A*0101; test: FP screen
[36] = biological target: T13, soluble HLA-B*4402; test: FP screen; remark: listed apart in the source
[37] = biological target: T14, soluble HLA-B*1512; test: FP screen; remark: listed apart in the source
[38] = biological target: T15, soluble HLA-B*4002; test: FP screen; remark: listed apart in the source
[39] = biological target: T5, soluble HLA-A*2601; test: FP screen
[40] = biological target: T6, soluble HLA-A*3402; test: FP screen
[41] = biological target: T19, soluble HLA-A*0301; test: FP screen; remark: listed apart in the source
[42] = biological target: T21, soluble HLA-B*2705 (sHLA-B*2705); test: FP screen; remark: listed apart in the source
[43] = biological target: T2, soluble HLA-B*1501; test: FP screen of 53 sHLA with FITC-peptide; remark: listed apart in the source
[44] = biological target: T3, soluble HLA-A*2902; test: FP screen of 53 sHLA with FITC-peptide; remark: listed apart in the source
[45] = biological target: T6, soluble HLA-A*3402; test: FP screen of 53 sHLA with FITC-peptide; remark: listed apart in the source
[46] = biological target: T16, soluble HLA-A*6601; test: FP screen of 53 sHLA with FITC-peptide
[47] = biological target: T19, soluble HLA-A*0301; test: FP screen of 53 sHLA with FITC-peptide
[48] = biological target: soluble HLA-A*0201 (sHLA-A*0201) (human); test: FP screen; remark: listed apart in the source
[49] = biological target: T7, soluble HLA-A*3002; test: FP screen; remark: listed apart in the source
[50] = biological target: T22, soluble HLA-A*4301 (sHLA-A*4301); test: FP screen; remark: listed apart in the source
[51] = biological target: T9, soluble HLA-B*4501; test: FP screen; remark: listed apart in the source
[52] = biological target: T1, soluble HLA-A*3601; test: FP screen; remark: listed apart in the source
[53] = biological target: T10, soluble HLA-B*1801; test: FP screen; remark: listed apart in the source
[54] = biological target: T11, soluble HLA-A*6901 (sHLA-A*6901); test: FP screen; remark: listed apart in the source
[55] = biological target: T4, soluble HLA-A*0101; test: FP screen; remark: listed apart in the source
[56] = biological target: T13, soluble HLA-B*4402; test: FP screen; remark: listed apart in the source
[57] = biological target: T14, soluble HLA-B*1512; test: FP screen; remark: listed apart in the source
[58] = biological target: T15, soluble HLA-B*4002; test: FP screen; remark: listed apart in the source
[59] = biological target: T5, soluble HLA-A*2601; test: FP screen; remark: listed apart in the source
[60] = biological target: T17, soluble HLA-A*2301; test: FP screen; remark: listed apart in the source
[61] = biological target: T18, soluble HLA-B*4001; test: FP screen; remark: listed apart in the source
[62] = biological target: T20, soluble HLA-A*2402; test: FP screen; remark: listed apart in the source
[63] = biological target: T21, soluble HLA-B*2705 (sHLA-B*2705); test: FP screen; remark: listed apart in the source
[64] = biological target: T19, soluble HLA-A*0301; test: FP competition against 1.8 nM FITC-labeled P1(A*0301), 42.1 µg/ml sHLA A*0301T (2798)

LVMAPRTVL
IC50 [1]: 0.276 µM

YTDGVPLKY (also: FITC-labeled, position not given here) [YTDGVPLKY, FITC-labeled A1-like peptide]
binding result [2]: binds | binding result [3]: binds | binding result [4]: binds | binding result [5]: binds | binding result [6]: binds | binding result [7]: binds | binding result [8]: no binding (tested: 100 ug/ml sHLA) | binding result [9]: no binding (tested: 100 ug/ml sHLA) | binding result [10]: no binding (tested: 100 ug/ml sHLA) | binding result [11]: no binding (tested: 100 ug/ml sHLA) | binding result [12]: no binding (tested: 100 ug/ml sHLA) | binding result [13]: no binding (tested: 100 ug/ml sHLA) | binding result [14]: no binding (tested: 100 ug/ml sHLA) | binding result [15]: no binding (tested: 100 ug/ml sHLA) | binding result [16]: no binding (tested: 100 ug/ml sHLA) | binding result [17]: no binding (tested: 100 ug/ml sHLA) | binding result [18]: no binding (tested: 100 ug/ml sHLA) | binding result [19]: no binding (tested: 100 ug/ml sHLA) | binding result [20]: no binding (tested: 100 ug/ml sHLA) | binding result [21]: no binding (tested: 100 ug/ml sHLA) | binding result [22]: no binding (tested: 100 ug/ml sHLA) | binding result [23]: no binding (tested: 100 ug/ml sHLA)

ATDFKFAMY [C1(A*0101)]
IC50 [24]: 8.63 µM | IC50 [25]: 1.57 µM

KYPENKFLL (also: FITC-labeled, position not given here) [KYPENKFLL, FITC-labeled A24-like peptide]
binding result [26]: binds | binding result [27]: no binding (tested: 100 ug/ml sHLA) | binding result [28]: no binding (tested: 100 ug/ml sHLA) | binding result [29]: no binding (tested: 100 ug/ml sHLA) | binding result [30]: no binding (tested: 100 ug/ml sHLA) | binding result [31]: no binding (tested: 100 ug/ml sHLA) | binding result [32]: no binding (tested: 100 ug/ml sHLA) | binding result [33]: no binding (tested: 100 ug/ml sHLA) | binding result [34]: no binding (tested: 100 ug/ml sHLA) | binding result [35]: no binding (tested: 100 ug/ml sHLA) | binding result [36]: no binding (tested: 100 ug/ml sHLA) | binding result [37]: no binding (tested: 100 ug/ml sHLA) | binding result [38]: no binding (tested: 100 ug/ml sHLA) | binding result [39]: no binding (tested: 100 ug/ml sHLA) | binding result [40]: no binding (tested: 100 ug/ml sHLA) | binding result [41]: no binding (tested: 100 ug/ml sHLA) | binding result [42]: no binding (tested: 100 ug/ml sHLA)

SLFRAVIKK (also: FITC-labeled, position not given here) [SLFRAVIKK, FITC-labeled A3-like peptide]
binding result [43]: binds | binding result [44]: binds | binding result [45]: binds | binding result [46]: binds | binding result [47]: binds | binding result [48]: no binding (tested: 100 ug/ml sHLA) | binding result [49]: no binding (tested: 100 ug/ml sHLA) | binding result [50]: no binding (tested: 100 ug/ml sHLA) | binding result [51]: no binding (tested: 100 ug/ml sHLA) | binding result [52]: no binding (tested: 100 ug/ml sHLA) | binding result [53]: no binding (tested: 100 ug/ml sHLA) | binding result [54]: no binding (tested: 100 ug/ml sHLA) | binding result [55]: no binding (tested: 100 ug/ml sHLA) | binding result [56]: no binding (tested: 100 ug/ml sHLA) | binding result [57]: no binding (tested: 100 ug/ml sHLA) | binding result [58]: no binding (tested: 100 ug/ml sHLA) | binding result [59]: no binding (tested: 100 ug/ml sHLA) | binding result [60]: no binding (tested: 100 ug/ml sHLA) | binding result [61]: no binding (tested: 100 ug/ml sHLA) | binding result [62]: no binding (tested: 100 ug/ml sHLA) | binding result [63]: no binding (tested: 100 ug/ml sHLA)

SLFRAVITK [C2(A*0301)]
IC50 [64]: 0.518 µM
